Assay results: paper PMC10996701

Target: yeast RPA (yRPA, ScRPA) (Saccharomyces cerevisiae, UniProt P22336;P26754;P26755 1-621;1-273;1-122)
Experiment: DEER

yeast RPA (yRPA, ScRPA), sequence (P22336 whole entry, chain 1 of 3): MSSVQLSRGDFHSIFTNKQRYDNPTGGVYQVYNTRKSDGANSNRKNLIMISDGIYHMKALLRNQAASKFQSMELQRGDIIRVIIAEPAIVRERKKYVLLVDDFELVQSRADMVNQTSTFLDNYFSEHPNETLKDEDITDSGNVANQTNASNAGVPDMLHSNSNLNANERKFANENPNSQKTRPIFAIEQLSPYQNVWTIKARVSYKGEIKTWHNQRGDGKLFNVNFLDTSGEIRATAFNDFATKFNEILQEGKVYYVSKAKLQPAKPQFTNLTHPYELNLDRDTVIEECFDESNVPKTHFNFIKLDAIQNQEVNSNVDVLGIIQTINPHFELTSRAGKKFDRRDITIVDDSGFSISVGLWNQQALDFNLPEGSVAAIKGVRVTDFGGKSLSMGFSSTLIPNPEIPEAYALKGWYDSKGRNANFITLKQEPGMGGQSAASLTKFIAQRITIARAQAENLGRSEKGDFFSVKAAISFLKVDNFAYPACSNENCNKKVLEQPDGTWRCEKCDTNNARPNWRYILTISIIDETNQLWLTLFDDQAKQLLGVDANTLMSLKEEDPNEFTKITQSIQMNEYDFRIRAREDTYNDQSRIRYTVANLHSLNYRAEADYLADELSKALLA
yeast RPA (yRPA, ScRPA), sequence (P26754 whole entry, chain 2 of 3): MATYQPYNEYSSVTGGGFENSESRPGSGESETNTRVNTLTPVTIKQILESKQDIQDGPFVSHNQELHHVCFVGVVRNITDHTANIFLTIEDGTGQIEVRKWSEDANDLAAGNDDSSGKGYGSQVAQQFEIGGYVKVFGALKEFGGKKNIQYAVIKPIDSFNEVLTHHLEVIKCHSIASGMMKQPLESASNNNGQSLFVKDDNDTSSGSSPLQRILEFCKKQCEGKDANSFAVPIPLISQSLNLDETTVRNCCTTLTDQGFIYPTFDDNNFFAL
yeast RPA (yRPA, ScRPA), sequence (P26755 whole entry, chain 3 of 3): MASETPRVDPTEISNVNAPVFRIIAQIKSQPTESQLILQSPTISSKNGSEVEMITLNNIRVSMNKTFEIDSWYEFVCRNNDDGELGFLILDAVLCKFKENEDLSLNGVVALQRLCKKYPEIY

B1: (dT)22 DEER (ssDNA)
DNA: UTTTTTTTTTTTTTTTTTTTTTTUT
modifications: M = 2'-aminouridine spin-labelled with isoindoline nitroxide, at the two U positions (1 and 24)
B1: binds.
